The results in this text go back to PMC11708228, “New mutations in the core Schizosaccharomyces pombe spindle pole body scaffold Ppc89 reveal separable functions in regulating cell division” (G3: Genes | Genomes | Genetics, 2024).

For the experiment, the target named is T1, GST-Ppc89(545-687) (S. pombe, UniProt Q10218 545-687).
T1 sequence (looked up): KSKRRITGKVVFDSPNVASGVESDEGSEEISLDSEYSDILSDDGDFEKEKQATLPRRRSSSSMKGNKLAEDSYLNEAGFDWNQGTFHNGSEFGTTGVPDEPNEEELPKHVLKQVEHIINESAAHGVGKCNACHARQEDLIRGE
Description: pull-down; 10 µg GST-Ppc89 bound to GST beads, blocked with 5% BSA, 10 µg MBP-Sid4 added, 30 min at 4°C in GST-bind buffer (4.3 mM sodium phosphate pH 7.3, 137 mM NaCl, 2.7 mM KCl, 1 mM DTT, 0.1% NP-40); washes up to 300 mM NaCl; SDS-PAGE, Coomassie blue. Particulars: both partners purified.

B1: MBP-Sid4(546-660) (domain or fragment, S. pombe, UniProt O60187 546-660, looked up)
chain: SQPLTSLNMPDSRFNLAKEKQLYYRLGLQHIDQQCSVETANMLKTVLVQLNIPFAIFPSTIGQVRRQLQQGRRLYQWARNIHYLIYEENMRDGLVSKQCLADMLKKIRELKKRSL
notes: Sid4, S. pombe, 660 aa, residues 546-660 (predicted α-helices 7-11); source: Rosetta2(DE3)pLysS bacteria, purified (amylose resin)
On to B1, for which the binding result is on record as “binds”.
